Measured values from patent US20250026843A1 (ANHUI BIOX VISION BIOLOGICAL TECHNOLOGY, published 2025).

T1: human CLDN18.1 expressed on the cell surface of HEK293 cells (human, UniProt P56856 1-261)
T1 construct: whole, on cells
T1 sequence (looked up): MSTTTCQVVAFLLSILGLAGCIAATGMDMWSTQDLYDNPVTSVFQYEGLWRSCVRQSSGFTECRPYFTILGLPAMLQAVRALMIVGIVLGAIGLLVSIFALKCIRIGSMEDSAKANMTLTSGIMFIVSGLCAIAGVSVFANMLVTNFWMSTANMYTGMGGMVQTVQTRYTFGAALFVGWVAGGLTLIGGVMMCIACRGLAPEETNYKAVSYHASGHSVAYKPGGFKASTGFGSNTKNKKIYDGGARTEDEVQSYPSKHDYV

T2: human CLDN18.2 expressed on the cell surface of HEK293 cells (human, UniProt P56856-2 1-261)
T2 construct: whole, on cells
T2 sequence (looked up): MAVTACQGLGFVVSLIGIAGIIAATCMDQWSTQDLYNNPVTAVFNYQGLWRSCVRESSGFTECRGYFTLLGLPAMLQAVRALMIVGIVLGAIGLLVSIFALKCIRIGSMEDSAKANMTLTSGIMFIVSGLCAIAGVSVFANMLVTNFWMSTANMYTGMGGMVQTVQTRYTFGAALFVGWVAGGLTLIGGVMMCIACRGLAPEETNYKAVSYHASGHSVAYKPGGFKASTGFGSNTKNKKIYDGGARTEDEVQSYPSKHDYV

B1: C8-WT-NA3S-HC (bispecific antibody, human IgG1, kappa, N297Q)
heavy: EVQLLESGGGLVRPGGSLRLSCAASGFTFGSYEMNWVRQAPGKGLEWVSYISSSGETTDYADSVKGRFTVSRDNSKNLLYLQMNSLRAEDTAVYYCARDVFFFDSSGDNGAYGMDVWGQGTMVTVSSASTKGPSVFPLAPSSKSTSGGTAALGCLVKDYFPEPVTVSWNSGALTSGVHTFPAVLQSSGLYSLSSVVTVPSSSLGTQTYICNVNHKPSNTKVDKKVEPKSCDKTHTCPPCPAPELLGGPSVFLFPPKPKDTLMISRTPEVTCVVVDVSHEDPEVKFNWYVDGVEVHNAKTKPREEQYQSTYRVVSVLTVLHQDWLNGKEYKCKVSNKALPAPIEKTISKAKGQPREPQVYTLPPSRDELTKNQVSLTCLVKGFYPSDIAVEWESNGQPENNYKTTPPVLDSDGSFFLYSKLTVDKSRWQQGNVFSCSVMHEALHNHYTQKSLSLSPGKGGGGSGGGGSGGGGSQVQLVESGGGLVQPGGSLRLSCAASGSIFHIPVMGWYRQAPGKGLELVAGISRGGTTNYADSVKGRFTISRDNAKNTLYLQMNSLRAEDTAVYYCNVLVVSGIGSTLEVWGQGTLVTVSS
light: DIQLTQSPSSLTASVGDRVTITCRSSQGIRSSLAWYQQKPGKPPKLLIYGASSLEGGVPSRFSGSGSGTDFTLTISSLQPEDFATYYCQQLNSFPSTFGQGTKLEIKRTVAAPSVFIFPPSDEQLKSGTASVVCLLNNFYPREAKVQWKVDNALQSGNSQESVTEQDSKDSTYSLSSTLTLSKADYEKHKVYACEVTHQGLSSPVTKSFNRGEC
notes: Fc is hIgG1 N297Q; also called anti-CD40×CLDN18.2 bispecific antibody; bispecific antibody of the present invention
B2: C8-2-NA3S-HC (bispecific antibody, human IgG1, kappa, N297Q)
heavy: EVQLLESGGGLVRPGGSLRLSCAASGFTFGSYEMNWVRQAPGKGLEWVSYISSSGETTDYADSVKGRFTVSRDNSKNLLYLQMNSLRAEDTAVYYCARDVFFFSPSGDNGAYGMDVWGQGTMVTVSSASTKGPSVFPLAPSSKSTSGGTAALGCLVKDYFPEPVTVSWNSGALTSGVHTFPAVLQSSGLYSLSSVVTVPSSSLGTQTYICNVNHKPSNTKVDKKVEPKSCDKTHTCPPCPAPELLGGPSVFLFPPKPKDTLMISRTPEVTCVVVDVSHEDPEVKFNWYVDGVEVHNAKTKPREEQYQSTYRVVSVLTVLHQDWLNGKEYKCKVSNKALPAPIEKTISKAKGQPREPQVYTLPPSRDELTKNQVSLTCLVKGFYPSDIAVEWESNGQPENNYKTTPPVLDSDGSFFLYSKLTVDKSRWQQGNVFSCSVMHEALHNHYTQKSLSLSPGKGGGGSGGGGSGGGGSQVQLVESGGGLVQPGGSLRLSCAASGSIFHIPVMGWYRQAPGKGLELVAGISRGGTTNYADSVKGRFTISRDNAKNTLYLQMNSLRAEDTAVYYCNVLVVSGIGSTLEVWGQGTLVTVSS
light: B1 light
notes: as for B1
B3: C8-10-NA3S-HC (bispecific antibody, human IgG1, kappa, N297Q)
heavy: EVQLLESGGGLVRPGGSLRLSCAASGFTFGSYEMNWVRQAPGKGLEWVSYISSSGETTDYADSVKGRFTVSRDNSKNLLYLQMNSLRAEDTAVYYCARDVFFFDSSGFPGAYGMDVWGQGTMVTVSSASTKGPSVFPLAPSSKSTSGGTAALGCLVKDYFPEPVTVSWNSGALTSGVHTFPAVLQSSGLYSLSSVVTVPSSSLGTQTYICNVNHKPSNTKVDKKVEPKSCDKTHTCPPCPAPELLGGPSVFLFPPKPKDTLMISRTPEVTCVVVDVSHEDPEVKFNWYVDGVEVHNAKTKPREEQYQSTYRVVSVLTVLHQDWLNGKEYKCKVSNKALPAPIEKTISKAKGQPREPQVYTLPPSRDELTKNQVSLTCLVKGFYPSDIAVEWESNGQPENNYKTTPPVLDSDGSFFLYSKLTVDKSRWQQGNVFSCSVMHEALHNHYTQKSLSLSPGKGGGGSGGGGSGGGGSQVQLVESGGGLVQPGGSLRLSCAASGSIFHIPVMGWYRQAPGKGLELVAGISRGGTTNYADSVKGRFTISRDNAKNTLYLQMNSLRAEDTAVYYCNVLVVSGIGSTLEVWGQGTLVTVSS
light: B1 light
notes: as for B1
B4: C8-6-NA3S-HC (bispecific antibody, human IgG1, kappa, N297Q)
heavy: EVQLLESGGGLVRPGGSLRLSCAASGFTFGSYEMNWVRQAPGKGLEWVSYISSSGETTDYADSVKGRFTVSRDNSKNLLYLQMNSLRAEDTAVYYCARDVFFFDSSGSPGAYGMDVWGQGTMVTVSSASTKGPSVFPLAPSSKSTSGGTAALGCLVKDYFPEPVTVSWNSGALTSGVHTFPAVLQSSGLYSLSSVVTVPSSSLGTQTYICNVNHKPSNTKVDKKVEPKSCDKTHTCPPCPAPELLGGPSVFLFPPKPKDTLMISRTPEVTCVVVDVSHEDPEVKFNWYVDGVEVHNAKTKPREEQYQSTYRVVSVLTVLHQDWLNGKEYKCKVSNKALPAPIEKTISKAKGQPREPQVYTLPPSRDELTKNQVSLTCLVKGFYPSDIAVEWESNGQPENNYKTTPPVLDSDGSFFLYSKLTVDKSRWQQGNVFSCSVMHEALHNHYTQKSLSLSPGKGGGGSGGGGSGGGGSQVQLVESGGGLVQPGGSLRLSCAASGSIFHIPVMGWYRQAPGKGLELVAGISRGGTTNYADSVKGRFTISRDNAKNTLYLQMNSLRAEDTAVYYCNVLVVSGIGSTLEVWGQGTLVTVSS
light: B1 light
notes: as for B1
B5: APX005 (antibody, V domains shown)
VH: QVQLVESGGGVVQPGRSLRLSCAASGFSFSSTYVCWVRQAPGKGLEWIACIYTGDGTNYSASWAKGRFTISKDSSKNTVYLQMNSLRAEDTAVYFCARPDITYGFAINFWGPGTLVTVSS
VL: DIQMTQSPSSLSASVGDRVTIKCQASQSISSRLAWYQQKPGKPPKLLIYRASTLASGVPSRFSGSGSGTDFTLTISSLQPEDVATYYCQCTGYGISWPIGGGTKVEIK

biological target: T1, human CLDN18.1 expressed on the cell …; test: flow cytometry on 18.1-HEK293 cells
Method: (§1) After culturing at 4° C. for 30 min, the cells were washed and added with 100 μL of 1:300 diluted PE-labeled Goat F(ab′)₂ Anti-human Fc (PE) and cultured at 4° C. for 30 min. The cells were then washed and the binding of the bispecific antibody to CLDN18.1 molecules expressed on the surface of HEK293 cells was detected through flow cytometry.

Binder | binding result
B1 | no binding (tested: 115.6 nM highest concentration tested)
B2 | no binding (tested: 115.6 nM highest concentration tested)
B3 | no binding (tested: 115.6 nM highest concentration tested)
B4 | no binding (tested: 115.6 nM highest concentration tested)

biological target: T2, human CLDN18.2 expressed on the cell …; test: flow cytometry on 18.2-HEK293 cells
Method: as §1, with “diluted” for “diluted PE-labeled”, “cultured” for “cultured at 4° C.”, “CLDN18.2” for “CLDN18.1 molecules”

binding result | Binder
binds | B1
binds | B2
binds | B3
binds | B4

biological target: T3, P17-His fusion protein (extracellular domain of human CD40 with a His tag) (human, UniProt P25942 21-193); test: ELISA, P17-His coated on plate, anti-human Fc-HRP detection
T3 construct: range 21-193; not shown: His tag
T3 sequence (P25942 21-193 limits assumed): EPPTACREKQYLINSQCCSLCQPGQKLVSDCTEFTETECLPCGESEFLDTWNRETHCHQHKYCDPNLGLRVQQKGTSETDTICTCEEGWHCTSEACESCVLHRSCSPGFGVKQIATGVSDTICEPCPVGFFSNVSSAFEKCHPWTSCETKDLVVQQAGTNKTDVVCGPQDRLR
Method: The obtained 4 bispecific antibodies were detected for affinity against the extracellular domain of human CD40 (Uniprot: positions 21 to 193 of P25942) through ELISA. The extracellular domain of human CD40 carried a His tag, also referred to herein as a P17-His fusion protein.
2 μg/mL of the P17-His fusion protein was coated onto a 96-well ELISA plate at 30 μL per well at 4° C. overnight. The next day, after encapsulating in 5% PBSM (PBS+5% Milk) at room temperature for 2 h, serially diluted (20 nM in the first well, 10-fold dilution in the second well, 3-fold dilution in the third to seventh wells, and 4-fold dilution in the seventh to eighth wells) anti-CD40×CLDN18.2 bispecific antibody, positive control APX005 (sequence derived from Apexigen Inc. US20120301488A1, prepared in the laboratory), or isotype IgG1 negative control were added. After culturing at room temperature for 1 h, washed 3 times with PBST (PBS+0.05% Tween-20), and then 30 μL of Goat-anti-human-Fc-HRP (abcam, ab97225) was added. After culturing at room temperature for 1 h, washed 3 times with PBST (PBS+0.05% Tween-20), and TMB colorimetric solution was added for color development for 5 to 30 min. After termination, OD450 was detected through a microplate reader (Beckman Coulter), and the results were analyzed and plotted through Graphpad 7.0 to evaluate the binding of the bispecific antibody to the P17-His fusion protein.

EC50 | Binder
0.0612 nM | B5
0.11 nM | B1
0.127 nM | B2
0.104 nM | B3
0.102 nM | B4
